The source of these data is patent publication US20230406921A1 (MABWELL SHANGHAI BIOSCIENCE, published 2023).

As usually defined, the Kd is the concentration at which binding is half-saturated. Usually kon stands for the rate constant with which the complex forms. Usually koff stands for a measure of how fast the partners let go of each other.

Assay [1] addresses T1, CD47 on the surface of human red blood cells (human, UniProt Q08722 19-323).
T1 construct: whole, on cells; Same protein as m3, on red blood cells; also called hRBC; RBC
Put plainly: FACS, RBC, 200 nM. (Flow cytometry measures light scatter and fluorescence of single cells or particles in a stream.)
Experimental: (§1) The difference between the binding of the mutant to CD47 on the surface of tumor cells and CD47 on the surface of red blood cells was evaluated.

Assay [2] concerns the target T2, recombinant antigen of the extracellular region of CD47 (Sino Biological, Cat: 12283-H08H) (human, UniProt Q08722 19-139).
T2 construct: extracellular domain; also called recombinant CD47 extracellular region; CD47 recombinant protein
Briefly: Fortebio BLI, recombinant CD47. On the technique in general: Biolayer interferometry detects binding as a change in optical thickness at a sensor tip.

Assay [3] addresses T2, recombinant antigen of the …. Put plainly: Fortebio BLI, antibody on AHC sensor, CD47 extracellular region 100 nM.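 Also: antibody held on the sensor through anti-human Fc capture, CD47 antigen in solution, association and dissociation phases each lasting 300 s.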
Experimental: The affinity between the obtained mutant antibody and the CD47 recombinant protein was determined by Fortebio. The antibody was immobilized on the surface of a sensor with the anti-human Fc capture antibody (AHC Sensor), and reacted with the recombinant antigen of the extracellular region of CD47 (with a working concentration of 100 nM) in the liquid phase. The duration for binding and dissociation was both 300 seconds. The kinetic parameters were determined.
The target of assay [4] is T3, CD47 on the surface of tumor cells (human, UniProt Q08722 19-323).
T3 construct: whole, on cells; Same protein as m4; also called CD47 antigen on the surface of U937 and CCRF cells; SKOV-3
Put plainly: FACS, tumor cells, 2 nM.
Experimental: as §1

Assay [5] concerns the target T2, recombinant antigen of the …. Briefly: Fortebio BLI.
The target in assay [6] is PD-L1 (human, UniProt Q9NZQ7 19-239, limits assumed). Briefly: Fortebio BLI.
Chain of PD-L1 (Q9NZQ7 19-239 limits assumed): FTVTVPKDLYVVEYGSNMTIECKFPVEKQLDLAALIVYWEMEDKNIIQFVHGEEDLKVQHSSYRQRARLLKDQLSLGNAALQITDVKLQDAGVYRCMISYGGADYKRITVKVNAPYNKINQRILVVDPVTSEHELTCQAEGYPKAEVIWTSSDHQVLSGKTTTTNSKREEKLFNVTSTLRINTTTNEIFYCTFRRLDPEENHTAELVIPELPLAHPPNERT
In assay [7] the target is T3, CD47 on the surface of tumor cells. Briefly: FACS, SKOV-3 tumor cells (no PD-L1), antibody 100 nM.
Experimental: (§2) In the experiment of analyzing the binding to human red blood cells, the antibody was used at a concentration of 1000 nM; and in the experiment of analyzing the binding to tumor cells, the antibody was used at a concentration of 100 nM.
The target in assay [8] is T1, CD47 on the surface of human red blood …. Briefly: FACS, human red blood cells, antibody 1000 nM.
Experimental: as §2

B1: hz140-Hm13/hz182-L (antibody, V domains shown)
VH: EVQLVQSGAEVKKPGASVKVSCKASGYKFTNYVMSWVRQAPGQRLEWMGYINPYNDAIKYNEKFTGRVTITRDTSASTAYMELSSLRSEDTAVYYCAREGDFYANYGRLGFAYWGQGTLVTVSS
VL: DIQMTQSPSSLSASVGDRVTITCRASQDISNYLNWYQQKPGKAPKLLLYYTSRLHSGVPSRFSGSGSGTDYTLTISSLQPEDFATYFCQQGAGRPYTFGGGTKVEIK
Regarding B1, the “FACS (MFI)” value in assay [1] is 2060 MFI. In assay [2], the Kd worked out at 5.97 nM and the kon came to 125000 M⁻¹ s⁻¹. In assay [3], the Kd was 6.2 nM, the koff stood at 0.00163 s⁻¹ and the on-rate constant (kon) was found to be 263000 M⁻¹ s⁻¹. Besides, the “FACS (MFI)” value in assay [4] is 25800 MFI.

B2: anti-human CD47/PD-L1 bispecific antibody 2MW1531-p (bispecific antibody)
heavy 1: EVQLVQSGAEVKKPGASVKVSCKASGYKFTNYVMSWVRQAPGQRLEWMGYINPYNDAIKYNEKFTGRVTITRDTSASTAYMELSSLRSEDTAVYYCAREGDFYANYGRLGFAYWGQGTLVTVSSASTKGPSVFPLAPCSRSTSESTAALGCLVKDYFPEPVTVSWNSGALTSGVHTFPAVLQSSGLYSLSSVVTVPSSSLGTQTYTCNVDHKPSNTKVDKRVESKYGPPCPPCPAPEFLGGPSVFLFPPKPKDTLMISRTPEVTCVVVDVSQEDPEVQFNWYVDGVEVHNAKTKPREEQYNSTYRVVSVLTVLHQDWLNGKEYKCKVSNKGLPSSIEKTISKAKGQPREPQVYTLPPSQKEMTKNQVSLTCLVKGFYPSDIAVEWESNGQPENNYKTTPPVLDSDGSFFLYSKLTVDKSRWQEGNVFSCSVMHEALHNRYTQKSLSLSLGK
heavy 2: EVQLVQSGAEVKKPGATVKISCKVSGFNIKDIYMHWVQQAPGKGLEWMGRIDPANANTKYDPKFQDRVTITADTSTNTAYMELSSLRSEDTAVYYCASGQLGPLGFDYWGQGTTVTVSSASTKGPSVFPLAPCSRSTSESTAALGCLVKDYFPEPVTVSWNSGALTSGVHTFPAVLQSSGLYSLSSVVTVPSSSLGTQTYTCNVDHKPSNTKVDKRVESKYGPPCPPCPAPEFLGGPSVFLFPPKPKDTLMISRTPEVTCVVVDVSQEDPEVQFNWYVDGVEVHNAKTKPREEQYNSTYRVVSVLTVLHQDWLNGKEYKCKVSNKGLPSSIEKTISKAKGQPREPQVYTLPPSQEEMTKNQVSLTCLVKGFYPSDIAVEWESNGQPENNYKTTPPVLDSDGSFFLYSKLTVDKSRWQEGNVFSCSVMHEALHNHYTQESLSLSLGK
VL: DIQMTQSPSSLSASVGDRVTITCRASQDISNYLNWYQQKPGKAPKLLLYYTSRLHSGVPSRFSGSGSGTDYTLTISSLQPEDFATYFCQQGAGRPYTFGGGTKVEIK
notes: Knobs-into-holes: heavy chain A hz140-H-A (anti-CD47), heavy chain B hz182-H-B (anti-PD-L1), common light chain
Take B2: in assay [5], the equilibrium dissociation constant (Kd) was 8.56 nM, the dissociation rate constant (koff) turned out to be 0.00131 s⁻¹ and the on-rate (kon) turned out to be 153000 M⁻¹ s⁻¹. For the same molecule, in assay [6], the affinity, expressed as Kd, was 0.474 nM; the dissociation rate constant (koff) was 0.000147 s⁻¹; the on-rate (kon) came out at 310000 M⁻¹ s⁻¹. For the same molecule, the “Binding to tumor cells (MFI)” value in assay [7] was 35400 MFI.

B3: anti-human CD47/PD-L1 bispecific antibody 2MW1531-m7 (bispecific antibody, human IgG4 S228P, kappa)
heavy 1: EVQLVQSGAEVKKPGASVKVSCKASGYKFTNYVMSWVRQAPGQRLEWMGYINPYNDAIKYNEKFTGRVTITRDTSASTAYMELSSLRSEDTAVYYCAREGDFYANYGRLGFAYWGQGTLVTVSSASTKGPSVFPLAPCSRSTSESTAALGCLVKDYFPEPVTVSWNSGALTSGVHTFPAVLQSSGLYSLSSVVTVPSSSLGTQTYTCNVDHKPSNTKVDKRVESKYGPPCPPCPAPEFLGGPSVFLFPPKPKDTLMISRTPEVTCVVVDVSQEDPEVQFNWYVDGVEVHNAKTKPREEQYNSTYRVVSVLTVLHQDWLNGKEYKCKVSNKGLPSSIEKTISKAKGQPREPQVYTLPPSQKEMTKNQVSLTCLVKGFYPSDIAVEWESNGQPENNYKTTPPVLDSDGSFFLYSKLTVDKSRWQEGNVFSCSVMHEALHNRYTQKSLSLSLGK
heavy 2: EVQLVQSGAEVKKPGATVKISCKVSGFNIKDIYMHWVQQAPGKGLEWMGRIDPANANTKYDPKFQDRVTITADTSTNTAYMELSSLRSEDTAVYYCASGQLGPLGFDYWGQGTTVTVSSASTKGPSVFPLAPCSRSTSESTAALGCLVKDYFPEPVTVSWNSGALTSGVHTFPAVLQSSGLYSLSSVVTVPSSSLGTQTYTCNVDHKPSNTKVDKRVESKYGPPCPPCPAPEFLGGPSVFLFPPKPKDTLMISRTPEVTCVVVDVSQEDPEVQFNWYVDGVEVHNAKTKPREEQYNSTYRVVSVLTVLHQDWLNGKEYKCKVSNKGLPSSIEKTISKAKGQPREPQVYTLPPSQEEMTKNQVSLTCLVKGFYPSDIAVEWESNGQPENNYKTTPPVLDSDGSFFLYSKLTVDKSRWQEGNVFSCSVMHEALHNHYTQESLSLSLGK
VL: DIQMTQSPSSLSASVGDRVTITCRASQDISNYLNWYQQKPGKAPKLLLYYTSRLHSGVPSRFSGSGSGTDYTLTISSLQPEDFATYFCQQGAGFPYTFGGGTKVEIKRTVAAPSVFIFPPSDEQLKSGTASVVCLLNNFYPREAKVQWKVDNALQSGNSQESVTEQDSKDSTYSLSSTLTLSKADYEKHKVYACEVTHQGLSSPVTKSFNRGEC
notes: Knobs-into-holes with a common light chain
B3: in assay [5], the dissociation constant Kd is 62.1 nM, the koff amounted to 0.00814 s⁻¹ and the on-rate constant (kon) was 131000 M⁻¹ s⁻¹. In assay [6], this molecule came in with a dissociation constant (Kd) of 0.917 nM, a koff of 0.00021 s⁻¹ and a kon of 230000 M⁻¹ s⁻¹. Further, the “Binding to tumor cells (MFI)” value in assay [7] was 28200 MFI.

B4: anti-human CD47/PD-L1 bispecific antibody 2MW1531-m2 (bispecific antibody)
heavy 1: EVQLVQSGAEVKKPGASVKVSCKASGYKFTNYVMSWVRQAPGQRLEWMGYINPYNDAIKYNEKFTGRVTITRDTSASTAYMELSSLRSEDTAVYYCAREGDFYANYGRLGFAYWGQGTLVTVSSASTKGPSVFPLAPCSRSTSESTAALGCLVKDYFPEPVTVSWNSGALTSGVHTFPAVLQSSGLYSLSSVVTVPSSSLGTQTYTCNVDHKPSNTKVDKRVESKYGPPCPPCPAPEFLGGPSVFLFPPKPKDTLMISRTPEVTCVVVDVSQEDPEVQFNWYVDGVEVHNAKTKPREEQYNSTYRVVSVLTVLHQDWLNGKEYKCKVSNKGLPSSIEKTISKAKGQPREPQVYTLPPSQKEMTKNQVSLTCLVKGFYPSDIAVEWESNGQPENNYKTTPPVLDSDGSFFLYSKLTVDKSRWQEGNVFSCSVMHEALHNRYTQKSLSLSLGK
heavy 2: EVQLVQSGAEVKKPGATVKISCKVSGFNIKDIYMHWVQQAPGKGLEWMGRIDPANANTKYDPKFQDRVTITADTSTNTAYMELSSLRSEDTAVYYCASGQLGPLGFDYWGQGTTVTVSSASTKGPSVFPLAPCSRSTSESTAALGCLVKDYFPEPVTVSWNSGALTSGVHTFPAVLQSSGLYSLSSVVTVPSSSLGTQTYTCNVDHKPSNTKVDKRVESKYGPPCPPCPAPEFLGGPSVFLFPPKPKDTLMISRTPEVTCVVVDVSQEDPEVQFNWYVDGVEVHNAKTKPREEQYNSTYRVVSVLTVLHQDWLNGKEYKCKVSNKGLPSSIEKTISKAKGQPREPQVYTLPPSQEEMTKNQVSLTCLVKGFYPSDIAVEWESNGQPENNYKTTPPVLDSDGSFFLYSKLTVDKSRWQEGNVFSCSVMHEALHNHYTQESLSLSLGK
VL: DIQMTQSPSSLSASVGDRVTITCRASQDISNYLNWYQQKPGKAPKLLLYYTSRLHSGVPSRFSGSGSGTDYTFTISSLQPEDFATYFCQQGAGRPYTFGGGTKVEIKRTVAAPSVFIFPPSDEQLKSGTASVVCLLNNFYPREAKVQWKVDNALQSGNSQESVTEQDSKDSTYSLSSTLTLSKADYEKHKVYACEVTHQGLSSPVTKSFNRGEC
notes: as for B3
Regarding B4, in assay [5], the dissociation constant Kd amounted to 81 nM, the off-rate (koff) worked out at 0.00678 s⁻¹ and the association rate constant (kon) stood at 83700 M⁻¹ s⁻¹. Moreover, in assay [6], binding was characterised by a dissociation constant (Kd) of 3.26 nM, the koff came out at 0.000696 s⁻¹ and the on-rate (kon) was 213000 M⁻¹ s⁻¹. Also, in assay [8], the “Binding to human red blood cells (MFI)” value was 799 MFI. Besides, the “Binding to tumor cells (MFI)” value in assay [7] stood at 29900 MFI.

B5: anti-human CD47/PD-L1 bispecific antibody 2MW1531-m1 (bispecific antibody)
heavy 1: EVQLVQSGAEVKKPGASVKVSCKASGYKFTNYVMSWVRQAPGQRLEWMGYINPYNDAIKYNEKFTGRVTITRDTSASTAYMELSSLRSEDTAVYYCAREGDFYANYGRLGFAYWGQGTLVTVSSASTKGPSVFPLAPCSRSTSESTAALGCLVKDYFPEPVTVSWNSGALTSGVHTFPAVLQSSGLYSLSSVVTVPSSSLGTQTYTCNVDHKPSNTKVDKRVESKYGPPCPPCPAPEFLGGPSVFLFPPKPKDTLMISRTPEVTCVVVDVSQEDPEVQFNWYVDGVEVHNAKTKPREEQYNSTYRVVSVLTVLHQDWLNGKEYKCKVSNKGLPSSIEKTISKAKGQPREPQVYTLPPSQKEMTKNQVSLTCLVKGFYPSDIAVEWESNGQPENNYKTTPPVLDSDGSFFLYSKLTVDKSRWQEGNVFSCSVMHEALHNRYTQKSLSLSLGK
heavy 2: EVQLVQSGAEVKKPGATVKISCKVSGFNIKDIYMHWVQQAPGKGLEWMGRIDPANANTKYDPKFQDRVTITADTSTNTAYMELSSLRSEDTAVYYCASGQLGPLGFDYWGQGTTVTVSSASTKGPSVFPLAPCSRSTSESTAALGCLVKDYFPEPVTVSWNSGALTSGVHTFPAVLQSSGLYSLSSVVTVPSSSLGTQTYTCNVDHKPSNTKVDKRVESKYGPPCPPCPAPEFLGGPSVFLFPPKPKDTLMISRTPEVTCVVVDVSQEDPEVQFNWYVDGVEVHNAKTKPREEQYNSTYRVVSVLTVLHQDWLNGKEYKCKVSNKGLPSSIEKTISKAKGQPREPQVYTLPPSQEEMTKNQVSLTCLVKGFYPSDIAVEWESNGQPENNYKTTPPVLDSDGSFFLYSKLTVDKSRWQEGNVFSCSVMHEALHNHYTQESLSLSLGK
VL: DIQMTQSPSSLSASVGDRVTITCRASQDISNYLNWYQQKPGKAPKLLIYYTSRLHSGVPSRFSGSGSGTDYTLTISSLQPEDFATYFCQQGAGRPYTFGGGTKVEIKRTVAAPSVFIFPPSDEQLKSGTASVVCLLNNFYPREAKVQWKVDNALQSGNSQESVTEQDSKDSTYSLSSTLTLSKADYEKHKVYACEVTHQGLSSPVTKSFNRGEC
notes: as for B3
As to B5, in assay [5], the Kd came to 22.5 nM, the koff was 0.00213 s⁻¹ and the kon amounted to 94600 M⁻¹ s⁻¹. In assay [6], this molecule registered a Kd of 1.59 nM, a koff of 0.000387 s⁻¹ and a kon of 243000 M⁻¹ s⁻¹. The “Binding to human red blood cells (MFI)” value in assay [8] came out at 888 MFI. Also, in assay [7], the “Binding to tumor cells (MFI)” value was found to be 33300 MFI.
